# In paper PMC11162469, “Discovery of RXFP2 genetic association in resistant hypertensive men and RXFP2 antagonists for the treatment of resistant hypertension” (Scientific Reports, 2024):
# T1: linker-less human LDLa peptide (Q8WXD0 43-80) (Homo sapiens, UniProt Q8WXD0, not fully specified)
# T1 construct: relaxin family peptide receptor 2 (RXFP2), human, LDLa module without the linker, residues 43-80; also called LDLa linker-less domain
# T1 chain: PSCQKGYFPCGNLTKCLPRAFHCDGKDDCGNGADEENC
# Key:
# Conditions in all cases: both partners purified
# [1] = target: T2, human LDLa-linker protein (huRXFP2-LDLa-linker(38-105)) (Homo sapiens, UniProt Q8WXD0); assay: SPR; Biacore S200; goat anti-rat Fc gamma immobilised on a Series S CM5 chip, purified recombinant rat anti-RXFP2 antibodies captured at 5 µg/mL; rat or human LDLa-linker protein flowed as analyte at 20, 10, 5, 2.5, 1.75 and 0 nM; 1:1 fit model
# T2 construct: relaxin family peptide receptor 2 (RXFP2), human, LDLa module and linker, residues 38-105; Expressed as LDLa-linker, enterokinase site, rat Fc, 8xHis; The Biacore methods say only 'LDLa-linker protein'; also called human LDLa-linker domain; source: Expi293, transfected, purified (Histrap excel, SEC); enterokinase digestion, Hispur Ni resin, Superdex 200; not shown: rat Fc, C-terminal, cleaved; …
# T2 sequence (Q8WXD0 38-105): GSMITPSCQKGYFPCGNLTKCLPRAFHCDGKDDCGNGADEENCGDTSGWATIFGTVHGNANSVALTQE
# [2] = target: T3, rat LDLa-linker protein (ratRXFP2-LDLa-linker(20-88)) (Rattus norvegicus, UniProt Q5ECL0); assay: as above
# T3 construct: relaxin family peptide receptor 2 (RXFP2), rat, LDLa module and linker, residues 20-88; Expressed as LDLa-linker, enterokinase site, rat Fc, 8xHis; The Biacore methods say only 'LDLa-linker protein'; also called rat LDLa-linker domain; source: Expi293, transfected, purified (Histrap excel, SEC); enterokinase digestion, Hispur Ni resin, Superdex 200; not shown: rat Fc, C-terminal, cleaved; 8xHis, …
# T3 sequence (Q5ECL0 entry or part of it): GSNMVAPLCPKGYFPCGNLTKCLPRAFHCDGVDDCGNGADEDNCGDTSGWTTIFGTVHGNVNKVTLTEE
# [3] = target: T1, linker-less human LDLa peptide (Q8WXD0 …); assay: ELISA; human LDLa peptide (Q8WXD0 43-80) immobilised at 1 µg/mL in PBS on Maxisorp plates overnight at 4 °C; purified antibodies from 5 µg/mL, diluted 1:2 for 8 points, 1 h at room temperature; HRP secondary antibody, TMB
Kd [2] [nM],Kd [1] [nM],binding result [3],Binder,binding result [1]
2.07,–,–,"RXFP2 mAb 3G4 (antibody, V domains shown, heavy chain variable domain; rat IgG2b heavy chain constant region (rat IgG2b backbone, in-house construct); Recombinant in a rat IgG2b backbone; found as a mouse hybridoma clone; source: Expi293, transfected, purified (Protein G)) VH: QVQLKESGPGLVAPSQSLSITCTVSGFSLTSYGVSWVRQPPGKGLEWLGVIWGDGSTNYHSALISRLSISKDNSKSQVFLKLNSLQTDDTATYYCAKSLGYYAMDYWGQGTSVTVSS VL: DIQMTQSPASLSVSVGETVTITCRASENIYSNLVWYQQKQGKSPQLLVYAATNLAEGVPSRFSGSGSGTQYSLKINSLQSEDFGSYYCQHFWGPPWTFGGGTKLEIK",no binding (tested: 20 nM (highest analyte concentration))
0.32,–,–,"RXFP2 mAb 4H2 (antibody, V domains shown, heavy chain variable domain; rat IgG2b heavy chain constant region (rat IgG2b backbone, in-house construct); Recombinant in a rat IgG2b backbone; found as a mouse hybridoma clone; source: Expi293, transfected, purified (Protein G)) VH: QVQLRQSGPSLVQPSQSLSITCTVSGFSLTNYGVHWVRQSPGKGLEWLGVIWRGGNTDHNAAFMSRLSITKDNSESQVFFKMNSLQVDDTAIYYCAKAEGYYALDYWGQGTSVTVYS VL: DIQMTQSPASLSVSVGETVTITCRASENIYSNLAWYQQKQGKSPQLLVYAVTNLADGVPSRFSGSGSGTQYSLKINSLQSEDFGSYYCQHFWGTPWTFGGGTKLEIK",no binding (tested: 20 nM (highest analyte concentration))
–,–,–,"RXFP2 mAb 2H3 (antibody, V domains shown, heavy chain variable domain; rat IgG2b heavy chain constant region (rat IgG2b backbone, in-house construct); Recombinant in a rat IgG2b backbone; found as a mouse hybridoma clone; source: Expi293, transfected, purified (Protein G)) VH: QVTLKESGPGILQPSQTLSLTCSFSGFSLSTSGMSVGWIRQPSGKGLEWLAHIWWNDDKYYNPALKSRLTISKDTSNNQVFLKIASVVTADTATYYCARIGYYDGSPHAMDYWGQGTSVTVSS VL: not shown",no binding (tested: 20 nM (highest analyte concentration))
0.18,–,–,"RXFP2 mAb 1G1 (antibody, V domains shown, heavy chain variable domain; rat IgG2b heavy chain constant region (rat IgG2b backbone, in-house construct); Recombinant in a rat IgG2b backbone; found as a mouse hybridoma clone; source: Expi293, transfected, purified (Protein G)) VH: EVQLQQSGPELVKPGASVKMSCKASGYTFTDYNMHWVKQKPGQGLEWIGYINPYNDGTEYNEKFKGKATLTSDKSSSTAYMDLSSLTSEDSAVYYCARGLWFAMNYWGQGTSVTVSS VL: DIQMTQSSSSFSVSLGDRVTITCKASEDIYNRLAWYQQKPGNTPRLLISGATILETGVPSRFSGSGSGKDYTLSIISLQTEDVATYYCQQYWIIPPTFGGGTKLEIK",no binding (tested: 20 nM (highest analyte concentration))
11.4,–,–,"RXFP2 mAb 3F3 (antibody, V domains shown, heavy chain variable domain; rat IgG2b heavy chain constant region (rat IgG2b backbone, in-house construct); Recombinant in a rat IgG2b backbone; found as a mouse hybridoma clone; source: Expi293, transfected, purified (Protein G)) VH: QVQLQQPGSVLVRPGASVKLSCKASGYIFTSYWMHWVKQRPGQGLEWIGEIYPNSGRTSYNEKFKGKATVTVDTSSSTAYVDLSSLTSEDSAVYYCASGGHWFAYWGQGTLVTVSA VL: DIQMTQSSSSFSVSLGDRVTITCKASEDIYNRLAWYQQKPGNAPRLLISGATSLEAGVPSRFSGSGSGKDYTLSITSLQTEDVSTYYCQQYWITPYTFGGGTKLEIK",no binding (tested: 20 nM (highest analyte concentration))
1.7,11.7,binds,"RXFP2 mAb 4F6 (antibody, V domains shown, heavy chain variable domain; rat IgG2b heavy chain constant region (rat IgG2b backbone, in-house construct); Recombinant in a rat IgG2b backbone; found as a mouse hybridoma clone; source: Expi293, transfected, purified (Protein G)) VH: EVQLQQSGPELVKPGASVKMSCKASGYTFTNYVLHWVKQKPGQGLEWIGYINPYNDGSKYNEKFKGRATLTSDKSSSTAYMELSSLTSEDSAVYYCARGGWLLDYFDYWGQGTTLTVSS VL: DVLMTQSPLSLPVSLGEQASISCRSSQSIVHSDGDTYLEWYLQKPGQSPNLLIYKVSNRFSGVPDRFSGSGSGTDFTLKISRVEAEDLGVYYCFQGSHVPPTFGGGTKLEIK",–
0.21,2.91,binds,"RXFP2 mAb 4G6 (antibody, V domains shown, heavy chain variable domain; rat IgG2b heavy chain constant region (rat IgG2b backbone, in-house construct); Recombinant in a rat IgG2b backbone; found as a mouse hybridoma clone; source: Expi293, transfected, purified (Protein G)) VH: EVQLQQSGPELVKPGASVKLSCKASGYTFTSYVMHWVKQKPEQGLEWIGYKNPSNDGIKYNEKFKGKATLTSDKSSNIAYMELFSLTSEDSAVYYCARSDFGSVWAMDYWGQGTSVTVSS VL: SIVMTQTPKFLLVSAGDRVTITCKASQSVNDDIVWYQQKPGQSPKLLIYYASNRYTGVPDRFTGSGYGTDFTFTISTVQAGDLAVYFCQQDYSSPFTFGSGTKLEIK",–
–,–,–,"RXFP2 mAb 4G7 (antibody, V domains shown, heavy chain variable domain; rat IgG2b heavy chain constant region (rat IgG2b backbone, in-house construct); Recombinant in a rat IgG2b backbone; found as a mouse hybridoma clone; source: Expi293, transfected, purified (Protein G)) VH: EVKLVESGGGLVQPGASLRLSCATSGFTFTDYYMSWVRQPPGKALEWLGFIRNKATGYTTEYSASVKGRFTISRDNSQSILYLQMNTLRAEDSATYYCARDLYYGDWYFDVWGAGTTVTVSS VL: not shown",no binding (tested: 20 nM (highest analyte concentration))

Binder,Kd [2] [nM],Kd [1] [nM],binding result [3],binding result [1]
"RXFP2 mAb 4B1 (antibody, V domains shown, heavy chain variable domain; rat IgG2b heavy chain constant region (rat IgG2b backbone, in-house construct); Recombinant in a rat IgG2b backbone; found as a mouse hybridoma clone; source: Expi293, transfected, purified (Protein G)) VH: QVQLQQSGAELVRPGSSVRISCKASGYAFSNSWINWVKQRPGQGLEWMGQIYPGDGNTNYNGRFKDKATLTADKSSSTAYMQLSSLTSEDSAVYFCARDHNYWGQGTTLTVSS VL: not shown",1.97,2.75,no binding (tested: 5 µg/mL (highest antibody concentration)),–
